The record followed here is article PMC6973313 (mAbs, 2020).

In this test the target is T1, Mouse GIPR extracellular domain (residues 19 to 134) (mouse, UniProt Q0P543 19-134).
T1 sequence: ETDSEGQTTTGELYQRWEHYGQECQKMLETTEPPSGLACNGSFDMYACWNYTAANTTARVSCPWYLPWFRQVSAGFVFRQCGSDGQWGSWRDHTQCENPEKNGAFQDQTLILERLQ
Kind of test: crystal structure.

B1: Fab of mAb1 (Fab1) (Fab, V domains shown)
VH: DVQLVESGGGLVQPGGSRKLSCAASGFTFSSFGMHWVRQAPEKGLEWVAYISSGSSTIYYADTVKGRFTISRDNPKNTLFLQMTSLRSEDTAMYYCARGKYPTWIAYWGQGTLVTVSA
VL: DIVMTQSPSSLTVTAGEKVTMSCKSSQSLLNSGNQKNYLTWYQQKPGQPPKLLISWASTRDSGVPDRFTGSGSGTDFTLTISSVQAEDLAVYYCQNDYSYPLTFGAGTKLELKR
Take B1: the binding result is “binds”.
